According to patent publication US20180037631A1 (Bristol-Myers Squibb, published 2018):
Changes are numbered by the printed parent chain. Values joined by “and” are separate entries in the source; they are usually repeats but may differ in a detail not shown here. Identical values can stand only once. Like-named read-outs stand apart in the source and are kept apart here. One block for each binder: values may come before it.

Experiments:
[1] = target: T1, Recombinant human EGFR-Fc (aa 1-645 of the extracellular domain of human EGFR fused to human Fc) (human, UniProt P00533 25-645); test: BIAcore
T1 construct: range 1-645; bought from R&D Systems; also called EGFR645-Fc; EGFR-Fc (HER-1); not shown: human Fc

[2] = target: T2, EGFR on the surface of human tumour cells (A431, H292) (human, UniProt P00533 25-1210); test: cell-based or functional assay
[3] = target: T2, EGFR on the surface of human tumour …; test: cell-based or functional assay; remark: listed apart in the source
[4] = target: T3, IGF-IR on human tumour cells (H292, MCF-7, RH41) (human, UniProt P08069 31-1367); test: cell-based or functional assay
[5] = target: T2, EGFR on the surface of human tumour …
[6] = target: T2, EGFR on the surface of human tumour …; remark: listed apart in the source
[7] = target: T1, Recombinant human EGFR-Fc (aa 1-645 of …); test: SPR Biacore
[8] = target: T2, EGFR on the surface of human tumour …; test: cell-based or functional assay; remark: listed apart in the source
[9] = target: T2, EGFR on the surface of human tumour …; remark: listed apart in the source
[10] = target: T2, EGFR on the surface of human tumour …; test: cell-based or functional assay; remark: listed apart in the source
[11] = target: T3, IGF-IR on human tumour cells (H292, …); test: cell-based or functional assay; remark: listed apart in the source
[12] = target: T1, Recombinant human EGFR-Fc (aa 1-645 of …)
[13] = target: T2, EGFR on the surface of human tumour …; test: cell-based or functional assay; remark: listed apart in the source
[14] = target: T1, Recombinant human EGFR-Fc (aa 1-645 of …); remark: listed apart in the source
[15] = target: T1, Recombinant human EGFR-Fc (aa 1-645 of …); remark: listed apart in the source
[16] = target: T1, Recombinant human EGFR-Fc (aa 1-645 of …); remark: listed apart in the source
monkey EGFR = monkey EGFR (monkey); test: SPR Biacore
mouse EGFR = mouse EGFR (mouse, UniProt Q01279 25-647, limits assumed); test: SPR Biacore
rat EGFR = rat EGFR (rat, UniProt A0ABK0LZB0 35-1214); test: SPR Biacore
[17] = target: T1, Recombinant human EGFR-Fc (aa 1-645 of …); remark: listed apart in the source
[18] = target: T2, EGFR on the surface of human tumour …; test: cell-based or functional assay; remark: listed apart in the source
[19] = target: T2, EGFR on the surface of human tumour …; test: cell-based or functional assay; remark: listed apart in the source
[20] = target: T3, IGF-IR on human tumour cells (H292, …); test: cell-based or functional assay; remark: listed apart in the source
[21] = target: T4, IGF1R-Fc (extracellular domain of human IGF1R aa 1-932 fused to hinge and constant regions of human IgG1) (human, UniProt P08069 31-932)
T4 construct: range 1-932; made in house by transient transfection, purified on Protein A; also called IGF-IR-Fc; not shown: hinge and constant regions of human IgG1

[22] = target: T2, EGFR on the surface of human tumour …; remark: listed apart in the source
[23] = target: T3, IGF-IR on human tumour cells (H292, …); test: [125I]-IGF-I competition on MCF-7 cells
[24] = target: T3, IGF-IR on human tumour cells (H292, …); test: IGF-I competition for IGF-IR binding
[25] = target: T4, IGF1R-Fc (extracellular domain of human …); test: SPR Biacore
[26] = target: T4, IGF1R-Fc (extracellular domain of human …); test: SPR Biacore, IGF-IR-Fc captured on Protein A
[27] = target: T3, IGF-IR on human tumour cells (H292, …); test: cell-based or functional assay; remark: listed apart in the source
[28] = target: T4, IGF1R-Fc (extracellular domain of human …); remark: listed apart in the source

Kd [1]: 14.6 nM
% inhibition of EGFR phosphorylation at 100 nM binder, cell-based assay [2]: 85.9%
A431 pEGFR IC50 (In-Cell Western) [3]: 24 nM
A431 pERK IC50 (In-Cell Western) [3]: 13 nM
H292 pEGFR IC50 (ELISA) [3]: 9 nM
H292 pIGF-IR IC50 (ELISA) [4]: > 3.4 µM
IC50 [5]: 14 nM
IC50 [6]: 15.9 nM
Kd [7]: 9.92 nM
Inhibition of H292 Proliferation IC50 [8]: 18 nM
Inhibition of PERK IC50 [8]: 17 nM
Inhibition of pEGFR IC50 [8]: 18 nM
IC50 [9]: 0.53 nM
inhibition of EGF-stimulated EGFR phosphorylation (Y1068), H292 cells, ELISA, IC50 [10]: 7 nM
inhibition of IGF1-stimulated IGF1R phosphorylation (Y1131), H292 cells, ELISA, IC50 [11]: > 3500 nM
Kd [12]: 9.92 nM and 13.2 nM
koff [12]: 0.00118 s⁻¹ and 0.00189 s⁻¹
kon [12]: 119000 M⁻¹ s⁻¹ and 143000 M⁻¹ s⁻¹
IC50, EGF-stimulated EGFR phosphorylation, H292 cells, ELISA [13]: 8 nM
B1: E1 EGFR 10Fn3-based binder, His-tagged monomer (designed binder)
chain: MGVSDVPRDLEVVAATPTSLLISWVAGAEDYQYYRITYGETGGNSPVQEFTVPHDLVTATISGLKPGVDYTITVYAVTDMMHVEYTEHPISINYRTEIDKPSQHHHHHH

Kd [14]: 1.4 nM
Kd [1]: 0.72 nM
% inhibition of EGFR phosphorylation at 100 nM binder, cell-based assay [2]: 87.5%
A431 pEGFR IC50 (In-Cell Western) [3]: 15 nM
A431 pERK IC50 (In-Cell Western) [3]: 11 nM
H292 pEGFR IC50 (ELISA) [3]: 22 nM
H292 pIGF-IR IC50 (ELISA) [4]: > 7 µM
IC50 [6]: 4.75 nM
Kd [7]: 3.4 nM
koff [15]: 0.000398 s⁻¹
kon [15]: 283000 M⁻¹ s⁻¹
Inhibition of H292 Proliferation IC50 [8]: 26 nM
Inhibition of PERK IC50 [8]: 97 nM
Inhibition of pEGFR IC50 [8]: 11 nM
IC50 [9]: 0.87 nM
Kd [16]: 3.4 nM
IC50, EGF-stimulated EGFR phosphorylation, A431 cells, In Cell Western [13]: 14 nM
IC50, EGF-stimulated EGFR phosphorylation, H292 cells, ELISA [13]: 21 nM
B2: E3 EGFR 10Fn3-based binder, His-tagged monomer (designed binder)
chain: B1 chain with V25L, A26P, A28K, E29L, D30R, V57R, D79N, T86S, H88Y

Kd (monkey EGFR): 3.9 nM
Kd (mouse EGFR): 5.5 nM
Kd (rat EGFR): 3.7 nM
Kd [17]: 3.63 nM
H292 colony formation assay IC50 [18]: 6 nM
IC50, EGF-induced EGFR phosphorylation, A431 cells, In Cell Western [19]: 12 nM
IC50, EGF-induced ERK phosphorylation, A431 cells, In Cell Western [19]: 13 nM
IC50, EGF-stimulated EGFR phosphorylation, H292 cells, ELISA [19]: 4 nM
IC50, IGF1-stimulated IGFR phosphorylation, H292 cells, ELISA [20]: 0.2 nM
Kd [21]: 0.46 nM
IC50 [22]: 38.1 nM
B3: I1-GS10-E4 pegylated, His-tagged (designed binder)
chain: MGVSDVPRDLEVVAATPTSLLISWSARLKVARYYRITYGETGGNSPVQEFTVPKNVYTATISGLKPGVDYTITVYAVTRFRDYQPISINYRTEIDKGSGSGSGSGSGSGSGSGSGSVSDVPRDLEVVAATPTSLLISWHERDGSRQYYRITYGETGGNSPVQEFTVPGGVRTATISGLKPGVDYTITVYAVTDYFNPTTHEYIYQTTPISINYRTEIDKPCQHHHHHH
modifications: 40 kDa branched PEG on the Cys of the C-terminal Cys tail

Kd (monkey EGFR): 5.7 nM
Kd (mouse EGFR): 6.9 nM
Kd (rat EGFR): 5.6 nM
Kd [17]: 4.77 nM
H292 colony formation assay IC50 [18]: 5 nM
IC50, EGF-induced EGFR phosphorylation, A431 cells, In Cell Western [19]: 12 nM
IC50, EGF-induced ERK phosphorylation, A431 cells, In Cell Western [19]: 12 nM
IC50, EGF-stimulated EGFR phosphorylation, H292 cells, ELISA [19]: 1.3 nM
IC50, IGF1-stimulated IGFR phosphorylation, H292 cells, ELISA [20]: 0.4 nM
Kd [21]: 0.77 nM
IC50 [22]: 19.5 nM
B4: E4-GS10-I1 pegylated, His-tagged (designed binder)
chain: MGVSDVPRDLEVVAATPTSLLISWHERDGSRQYYRITYGETGGNSPVQEFTVPGGVRTATISGLKPGVDYTITVYAVTDYFNPTTHEYIYQTTPISINYRTEIDKGSGSGSGSGSGSGSGSGSGSVSDVPRDLEVVAATPTSLLISWSARLKVARYYRITYGETGGNSPVQEFTVPKNVYTATISGLKPGVDYTITVYAVTRFRDYQPISINYRTEIDKPCQHHHHHH
modifications: 40 kDa branched PEG on the Cys of the C-terminal Cys tail
notes: also called E4-GS10-I1 (with Peg)

IC50 [23]: 8 nM
H292 pIGF-IR IC50 (ELISA) [4]: 0.2 nM
IC50 [24]: 8 nM
Kd [25]: 0.11 nM
Kd [26]: 0.11 nM
Inhibition of RH41 Proliferation IC50 [27]: 28 nM
Inhibition of pIGFR IC50 [27]: 0.2 nM
Kd [28]: 0.11 nM
koff [28]: 0.000434 s⁻¹
kon [28]: 3.84e+06 M⁻¹ s⁻¹
IC50, IGF1-stimulated IGFR phosphorylation, H292 cells, ELISA [20]: 0.4 nM
inhibition of EGF-stimulated EGFR phosphorylation (Y1068), H292 cells, ELISA, IC50 [10]: > 6210 nM
inhibition of IGF1-stimulated IGF1R phosphorylation (Y1131), H292 cells, ELISA, IC50 [11]: 18 nM
B5: I1 IGF-IR 10Fn3-based binder, His-tagged monomer (designed binder)
chain: MGVSDVPRDLEVVAATPTSLLISWSARLKVARYYRITYGETGGNSPVQEFTVPKNVYTATISGLKPGVDYTITVYAVTRFRDYQPISINYRTEIDKPSQHHHHHH
